Assay results published in US20250339531A1, “DUX4 POLYPEPTIDES AND NUCLEIC ACIDS FOR TREATING INFLAMMATORY AND AUTOIMMUNE CONDITIONS” (Fred Hutchinson Cancer Center, priority 2021, published 2025).

Tested on: proteins that co-immunoprecipitated with DUX4-CTD constructs expressed in MB135 myoblasts
Experiment: LC-MS of proteins co-immunoprecipitated with DUX4-CTD (Table 1) and western validation
Format: binding, human
Set-up: key to 4. mL1dL2 + Dox + IFNG / 4. + IFNG mix / 4. longCTD + Dox + IFNG / 3. + IFNg + Dox longCTD / 3. + Dox longCTD / 3. + IFNG longCTD: peptide-spectrum matches (PSMs) per protein
Conditions: kind of count not given; for 4. + IFNG mix: LC-MS value per protein co-immunoprecipitated from MB135 myoblasts, + IFNG mix sample (no Dox); for 4. mL1dL2 + Dox + IFNG: LC-MS value per protein co-immunoprecipitated with DUX4-CTD construct mL1dL2 in MB135 myoblasts
Outline: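 FLAG-tagged DUX4-CTD expressed in doxycycline-induced MB135 myoblasts, some also IFNG-treated; nuclear lysates in pH 7.4 NP-40 IP buffer were pre-cleared, then anti-FLAG immunoprecipitated 3 h at 4 °C. For LC-MS, FLAG-peptide elution, in-gel trypsin digest, Orbitrap analysis; proteins with ≥2 PSMs in both experiments categorised and ranked by total PSMs.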

Molecule	4. + IFNG mix	4. mL1dL2 + Dox + IFNG
SLC3A2 (protein) SQDTEVDMKEVELNELEPEKQPMNAASGAAMSLAGAEKNGLVKIKVAEDEAEAAAAAKFTGLSKEELLKVAGSPGWVRTRWALLLLFWLGWLGMLAGAVVIIVRAPRCRELPAQKWWHTGALYRIGDLQAFQGHGAGNLAGLKGRLDYLSSLKVKGLVLGPIHKNQKDDVAQTDLLQIDPNFGSKEDFDSLLQSAKKKSIRVILDLTPNYRGENSWFSTQVDTVATKVKDALEFWLQAGVDGFQVRDIENLKDASSFLAEWQNITKGFSEDRLLIAGTNSSDLQQILSLLESNKDLLLTSSYLSDSGSTGEHTKSLVTQYLNATGNRWCSWSLSQARLLTSFLPAQLLRLYQLMLFTLPGTPVFSYGDEIGLDAAALPGQPMEAPVMLWDESSFPDIPGAVSANMTVKGQSEDPGSLLSLFRRLSDQRSKERSLLHGDFHAFSAGPGLFSYIRHWDQNERFLVVLNFGDVGLSAGLQASDLPASASLPAKADLLLSTQPGREEGSPLELERLKLEPHEGLLLRFPYAA	2	4
SLC25A3 (protein) AVEEQYSCDYGSGRFFILCGLGGIISCGTTHTALVPLDLVKCRMQVDPQKYKGIFNGFSVTLKEDGVRGLAKGWAPTFLGYSMQGLCKFGFYEVFKVLYSNMLGEENTYLWRTSLYLAASASAEFFADIALAPMEAAKVRIQTQPGYANTLRDAAPKMYKEEGLKAFYKGVAPLWMRQIPYTMMKFACFERTVEALYKFVVPKPRSECSKPEQLVVTFVAGYIAGVFCAIVSHPADSVVSVLNKEKGSSASLVLKRLGFKGVWKGLFARIIMIGTLTALQWFIYDSVKVYFRLPRPPPPEMPESLKKKLGLTQ	3	2
RTN4 (protein) MEDLDQSPLVSSSDSPPRPQPAFKYQFVREPEDEEEEEEEEEEDEDEDLEELEVLERKPAAGLSAAPVPTAPAAGAPLMDFGNDFVPPAPRGPLPAAPPVAPERQPSWDPSPVSSTVPAPSPLSAAAVSPSKLPEDDEPPARPPPPPPASVSPQAEPVWTPPAPAPAAPPSTPAAPKRRGSSGSVDETLFALPAASEPVIRSSAENMDLKEQPGNTISAGQEDFPSVLLETAASLPSLSPLSAASFKEHEYLGNLSTVLPTEGTLQENVSEASKEVSEKAKTLLIDRDLTEFSELEYSEMGSSFSVSPKAESAVIVANPREEIIVKNKDEEEKLVSNNILHNQQELPTALTKLVKEDEVVSSEKAKDSFNEKRVAVEAPMREEYADFKPFERVWEVKDSKEDSDMLAAGGKIESNLESKVDKKCFADSLEQTNHEKDSESSNDDTSFPSTPEGIKDRSGAYITCAPFNPAATESIATNIFPLLGDPTSENKTDEKKIEEKKAQIVTEKNTSTKTSNPFLVAAQDSETDYVTTDNLTKVTEEVVANMPEGLTPDLVQEACESELNEVTGTKIAYETKMDLVQTSEVMQESLYPAAQLCPSFEESEATPSPVLPDIVMEAPLNSAVPSAGASVIQPSSSPLEASSVNYESIKHEPENPPPYEEAMSVSLKKVSGIKEEIKEPENINAALQETEAPYISIACDLIKETKLSAEPAPDFSDYSEMAKVEQPVPDHSELVEDSSPDSEPVDLFSDDSIPDVPQKQDETVMLVKESLTETSFESMIEYENKEKLSALPPEGGKPYLESFKLSLDNTKDTLLPDEVSTLSKKEKIPLQMEELSTAVYSNDDLFISKEAQIRETETFSDSSPIEIIDEFPTLISSKTDSFSKLAREYTDLEVSHKSEIANAPDGAGSLPCTELPHDLSLKNIQPKVEEKISFSDDFSKNGSATSKVLLLPPDVSALATQAEIESIVKPKVLVKEAEKKLPSDTEKEDRSPSAIFSAELSKTSVVDLLYWRDIKKTGVVFGASLFLLLSLTVFSIVSVTAYIALALLSVTISFRIYKGVIQAIQKSDEGHPFRAYLESEVAISEELVQKYSNSALGHVNCTIKELRRLFLVDDLVDSLKFAVLMWVFTYVGALFNGLTLLILALISLFSVPVIYERHQAQIDHYLGLANKNVKDAMAKIQAKIPGLKRKAE	5	5
PHGDH (protein) AFANLRKVLISDSLDPCCRKILQDGGLQVVEKQNLSKEELIAELQDCEGLIVRSATKVTADVINAAEKLQVVGRAGTGVDNVDLEAATRKGILVMNTPNGNSLSAAELTCGMIMCLARQIPQATASMKDGKWERKKFMGTELNGKTLGILGLGRIGREVATRMQSFGMKTIGYDPIISPEVSASFGVQQLPLEEIWPLCDFITVHTPLLPSTTGLLNDNTFAQCKKGVRVVNCARGGIVDEGALLRALQSGQCAGAALDVFTEEPPRDRALVDHENVISCPHLGASTKEAQSRCGEEIAVQFVDMVKGKSLTGVVNAQALTSAFSPHTKPWIGLAEALGTLMRAWAGSPKGTIQVITQGTSLKNAGNCLSPAVIVGLLKEASKQADVNLVNAKLLVKEAGLNVTTSHSPAAPGEQGFGECLLAVALAGAPYQAVGLVQGTTPVLQGLNGAVFRPEVPLRRDLPLLLFRTQTSDPAMLPTMIGLLAEAGVRLLSYQTSLVSDGETWHVMGISSLLPSLEAWKQHVTEAFQFHF	–	1
PRSS2 (protein) IVGGYICEENSVPYQVSLNSGYHFCGGSLISEQWVVSAGHCYKSAINSKLSGRGCEYHRIQVRLGEHNIEVLEGNEQFINAAKIIRHPKYNSRTLDNDILLIKLSSPAVINSRVSAISLPTAPPAAGTESLISGWGNTLSSGADYPDELQCLDAPVLSQAECEASYPGKITNNMFCVGFLEGGKDSCQGDSGGPVVSNGELQGIVSWGYGCAQKNRPGVYTKVYNYVDWIKDTIAANS	–	1
S100A9 (protein) MTCKMSQLERNIETIINTFHQYSVKLGHPDTLNQGEFKELVRKDLQNFLKKENKNEKVIEHIMEDLDTNADKQLSFEEFIMLMARLTWASHEKMHEGDEGPGHHHKPGLGEGTP	–	2
AP2A1 (protein) MPAVSKGDGMRGLAVFISDIRNCKSKEAEIKRINKELANIRSKFKGDKALDGYSKKKYVCKLLFIFLLGHDIDFGHMEAVNLLSSNKYTEKQIGYLFISVLVNSNSELIRLINNAIKNDLASRNPTFMCLALHCIANVGSREMGEAFAADIPRILVAGDSMDSVKQSAALCLLRLYKASPDLVPMGEWTARVVHLLNDQHMGVVTAAVSLITCLCKKNPDDFKTCVSLAVSRLSRIVSSASTDLQDYTYYFVPAPWLSVKLLRLLQCYPPPEDAAVKGRLVECLETVLNKAQEPPKSKKVQHSNAKNAILFETISLIIHYDSEPNLLVRACNQLGQFLQHRETNLRYLALESMCTLASSEFSHEAVKTHIDTVINALKTERDVSVRQRAADLLYAMCDRSNAKQIVSEMLRYLETADYAIREEIVLKVAILAEKYAVDYSWYVDTILNLIRIAGDYVSEEVWYRVLQIVTNRDDVQGYAAKTVFEALQAPACHENMVKVGGYILGEFGNLIAGDPRSSPPVQFSLLHSKFHLCSVATRALLLSTYIKFINLFPETKATIQGVLRAGSQLRNADVELQQRAVEYLTLSSVASTDVLATVLEEMPPFPERESSILAKLKRKKGPGAGSALDDGRRDPSSNDINGGMEPTPSTVSTPSPSADLLGLRAAPPPAAPPASAGAGNLLVDVFDGPAAQPSLGPTPEEAFLSELEPPAPESPMALLADPAPAADPGPEDIGPPIPEADELLNKFVCKNNGVLFENQLLQIGVKSEFRQNLGRMYLFYGNKTSVQFQNFSPTVVHPGDLQTQLAVQTKRVAAQVDGGAQVQQVLNIECLRDFLTPPLLSVRFRYGGAPQALTLKLPVTINKFFQPTEMAAQDFFQRWKQLSLPQQEAQKIFKANHPMDAEVTKAKLLGFGSALLDNVDPNPENFVGAGIIQTKALQVGCLLRLEPNAQAQMYRLTLRTSKEPVSRHLCELLAQQF	–	5
